Results published in US20070218064A1 (published 2007).
Numbering of substitutions follows the chain as printed.

T1: recombinant human IL-23 (hrIL-23), produced at Centocor (human, UniProt P29460 23-328)
T1 sequence 1: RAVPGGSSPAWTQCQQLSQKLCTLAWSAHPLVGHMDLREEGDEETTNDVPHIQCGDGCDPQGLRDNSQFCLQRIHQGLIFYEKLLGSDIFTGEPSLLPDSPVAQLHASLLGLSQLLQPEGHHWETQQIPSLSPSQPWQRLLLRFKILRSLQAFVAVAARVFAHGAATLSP
T1 sequence 2: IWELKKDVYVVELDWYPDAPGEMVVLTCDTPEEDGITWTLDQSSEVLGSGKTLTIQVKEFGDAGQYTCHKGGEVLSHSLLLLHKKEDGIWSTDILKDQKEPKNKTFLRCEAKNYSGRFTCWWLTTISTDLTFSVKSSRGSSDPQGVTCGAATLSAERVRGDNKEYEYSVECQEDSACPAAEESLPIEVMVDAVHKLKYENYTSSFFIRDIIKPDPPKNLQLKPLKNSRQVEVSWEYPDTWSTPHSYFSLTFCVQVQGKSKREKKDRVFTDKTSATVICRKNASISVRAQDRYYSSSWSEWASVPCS

B1: mAb MOR05042 (antibody, IgG1, V domains shown)
VH: QVELVQSGAEVKKPGESLKISCKGSGYSFSNYWIGWVRQMPGKGLEWMGIIPSTYSPSFQGQVTISADKSISTAYLQWSSLKASDTAMYYCARWYYKPFDVWGQGTLVTVSS
VL: DIVLTQPPSVSGAPGQRVTISCTGSSSNIGSGYDVHWYQQLPGTAPKLLIYGNSKRPSGVPDRFSGSKSGTSASLAITGLQSEDEADYYCSSWTPSSVVFGGGTKLTVL
B2: mAb MOR05044 (antibody, IgG1, V domains shown)
VH: QVELVQSGAEVKKPGESLKISCKGSGYSFSNYWIGWVRQMPGKGLEWMGIIPSSTYSPSFQGQVTISADKSISTAYLQWSSLKASDTAMYYCARWYYKPFDVWGQGTLVTVSS
VL: B1 VL
B3: mAb MOR05045 (antibody, IgG1, V domains shown)
VH: B1 VH
VL: B1 VL
B4: mAb MOR05046 (antibody, IgG1, V domains shown)
VH: B2 VH with P52D, S53P
VL: B1 VL
B5: mAb MOR05041 (antibody, IgG1, V domains shown)
VH: B1 VH
VL: B1 VL
B6: mAb MOR05043 (antibody, IgG1, V domains shown)
VH: QVELVQSGAEVKKPGESLKISCKGSGYSFSNYWIGWVRQMPGKGLEWMGIPSTYSPSFQGQVTISADKSISTAYLQWSSLKASDTAMYYCARWYYKPFDVWGQGTLVTVSS
VL: B1 VL
B7: mAb MOR05058 (antibody, IgG1, V domains shown)
VH: QVELVQSGAEVKKPGESLKISCKGSGYSFSNYWIGWVRQMPGKGLEWMGIIDPSNSYTNYSPSFQGQVTISADKSISTAYLQWSSLKASDTAMYYCARWYYKPFDVWGQGTLVTVSS
VL: DIVLTQPPSVSGAPGQRVTISCTGSSSNIGSGYDVHWYQQLPGTAPKLLIYGNSKRPSGVPDRFSGSKSGTSASLAITGLQSEDEADYYCSSWTPVFGGGTKLTVL
B8: mAb MOR05059 (antibody, IgG1, V domains shown)
VH: B7 VH
VL: B7 VL with S92W, W93T, T94S, P95V
B9: mAb MOR05028 (antibody, IgG1, V domains shown)
VH: QVELVQSGAEVKKPGSSVKVSCKASGGTFSNYAISWVRQAPGQGLEWMGGIIPFGYAQKFQGRVTITADESTSTAYMELSSLRSEDTAVYYCARDIYAGMDVWGQGTLVTVSS
VL: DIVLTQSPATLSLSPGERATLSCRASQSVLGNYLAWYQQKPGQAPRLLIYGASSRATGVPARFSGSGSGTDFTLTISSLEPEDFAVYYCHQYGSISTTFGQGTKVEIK
B10: mAb MOR05036 (antibody, IgG1, V domains shown)
VH: QVELVQSGAEVKKPGSSVKVSCKASGGTFSSNYISWVRQAPGQGLEWMGIPFGAYAQKFQGRVTITADESTSTAYMELSSLRSEDTAVYYCARSKKGMYGGWTYPLMMFDLWGQGTLVTVSS
VL: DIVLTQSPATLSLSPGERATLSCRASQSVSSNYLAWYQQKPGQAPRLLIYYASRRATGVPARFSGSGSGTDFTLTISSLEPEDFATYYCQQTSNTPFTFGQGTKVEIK
B11: mAb MOR05038 (antibody, IgG1, V domains shown)
VH: QVELVQSGAEVKKPGSSVKVSCKASGGTFSSNYISWVRQAPGQGLEWMGIGYAQKFQGRVTITADESTSTAYMELSSLRSEDTAVYYCARSKKGMYGGWTYPLMMFDLWGQGTLVTVSS
VL: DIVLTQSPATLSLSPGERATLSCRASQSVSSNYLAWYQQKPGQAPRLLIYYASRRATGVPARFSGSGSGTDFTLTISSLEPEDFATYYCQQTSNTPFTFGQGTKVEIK
B12: mAb MOR05040 (antibody, IgG1, V domains shown)
VH: QVELVQSGAEVKKPGSSVKVSCKASGGTFSSNYISWVRQAPGQGLEWMGAYAQKFQGRVTITADESTSTAYMELSSLRSEDTAVYYCARSKKGMYGGWTYPLMMFDLWGQGTLVTVSS
VL: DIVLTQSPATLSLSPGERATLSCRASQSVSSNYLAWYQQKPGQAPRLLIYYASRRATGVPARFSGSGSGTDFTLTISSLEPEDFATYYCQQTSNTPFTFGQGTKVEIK
B13: mAb MOR05054 (antibody, IgG1, V domains shown)
VH: QVELVESGGGLVQPGGSLRLSCAASGFTFSSFGMSWVRQAPGKGLEWVSITYASVKGRFTISRDNSKNTLYLQMNSLRAEDTAVYYCARYWGTPYLMQFDNWGQGTLVTVSS
VL: DIALTQPASVSGSPGQSITISCTGTSSDVGGYNSVSWYQQHPGKAPKLMIYSVSSRPSGVSNRFSGSKSGNTASLTISGLQAEDEADYYCSSYDTNKPLVVFGGGTKLTVL
B14: mAb MOR05055 (antibody, IgG1, V domains shown)
VH: QVELVESGGGLVQPGGSLRLSCAASGFTFSSFGMSWVRQAPGKGLEWVSNIGTYASVKGRFTISRDNSKNTLYLQMNSLRAEDTAVYYCARYWGTPYLMQFDNWGQGTLVTVSS
VL: B13 VL
B15: mAb MOR05050 (antibody, IgG1, V domains shown)
VH: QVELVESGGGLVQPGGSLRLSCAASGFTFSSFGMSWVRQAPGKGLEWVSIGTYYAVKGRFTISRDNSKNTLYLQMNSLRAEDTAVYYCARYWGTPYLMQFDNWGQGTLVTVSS
VL: B13 VL
B16: mAb MOR05048 (antibody, IgG1, V domains shown)
VH: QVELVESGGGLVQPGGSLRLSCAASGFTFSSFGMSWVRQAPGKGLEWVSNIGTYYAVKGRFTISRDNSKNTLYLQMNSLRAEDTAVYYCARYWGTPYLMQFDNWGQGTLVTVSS
VL: B13 VL
B17: mAb MOR05051 (antibody, IgG1, V domains shown)
VH: B13 VH
VL: B13 VL
B18: mAb MOR05047 (antibody, IgG1, V domains shown)
VH: B14 VH
VL: B13 VL
B19: mAb MOR05056 (antibody, IgG1, V domains shown)
VH: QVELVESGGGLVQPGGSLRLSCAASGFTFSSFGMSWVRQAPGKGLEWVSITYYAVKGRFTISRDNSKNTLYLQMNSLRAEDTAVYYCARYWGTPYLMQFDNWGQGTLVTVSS
VL: B13 VL
B20: mAb MOR05053 (antibody, IgG1, V domains shown)
VH: B14 VH with G52T, T53Y
VL: B13 VL
B21: mAb MOR05039 (antibody, IgG1, V domains shown)
VH: B14 VH with G52T, T53Y
VL: B13 VL
B22: mAb MOR05049 (antibody, IgG1, V domains shown)
VH: B13 VH
VL: B13 VL
B23: mAb MOR05052 (antibody, IgG1, V domains shown)
VH: B13 VH
VL: B13 VL
B24: mAb MOR05029 (antibody, IgG1, V domains shown)
VH: QVELVQSGAEVKKPGSSVKVSCKASGGTFSSNYISWVRQAPGQGLEWMGGIIPIFGHANYAQKFQGRVTITADESTSTAYMELSSLRSEDTAVYYCARSKKGMYGGWTYPLMMFDLWGQGTLVTVSS
VL: DIVLTQSPATLSLSPGERATLSCRASQSVSSNYLAWYQQKPGQAPRLLIYYASRRATGVPARFSGSGSGTDFTLTISSLEPEDFAYYCQQTFGQGTKVEIK
B25: mAb MOR05032 (antibody, IgG1, V domains shown)
VH: B24 VH
VL: DIVLTQSPATLSLSPGERATLSCRASQSVSSNYLAWYQQKPGQAPRLLIYYASRRATGVPARFSGSGSGTDFTLTISSLEPEDFAYYCQQNPFTFGQGTKVEIK
B26: mAb MOR05030 (antibody, IgG1, V domains shown)
VH: B24 VH
VL: DIVLTQSPATLSLSPGERATLSCRASQSVSSNYLAWYQQKPGQAPRLLIYYASRRATGVPARFSGSGSGTDFTLTISSLEPEDFAYYCQQPFTFGQGTKVEIK

biological target: T1, recombinant human IL-23 (hrIL-23), …; experiment: cell-based or functional assay

Point of comparison: B26, “Inhibition of IL-17 production, IC50” value 0.0646 µg/mL. Against it:
- B1 — 51-fold lower, 0.00127 µg/mL
- B2 — 4.6-fold lower, 0.0141 µg/mL
- B3 — 46-fold lower, 0.0014 µg/mL
- B4 — 1.5-fold lower, 0.0428 µg/mL
- B5 — 21-fold lower, 0.00301 µg/mL
- B6 — 4.5-fold lower, 0.0144 µg/mL
- B7 — 23-fold lower, 0.00285 µg/mL
- B8 — 6.1-fold lower, 0.0106 µg/mL
- B9 — 1.6-fold higher, 0.104 µg/mL
- B10 — 2.6-fold higher, 0.17 µg/mL
- B11 — 2.3-fold lower, 0.0282 µg/mL
- B12 — 24-fold lower, 0.00264 µg/mL
- B13 — 20-fold lower, 0.00323 µg/mL
- B14 — within 1.5-fold, 0.0916 µg/mL
- B15 — 2.3-fold lower, 0.0277 µg/mL
- B16 — 4-fold lower, 0.0162 µg/mL
- B17 — within 1.5-fold, 0.0663 µg/mL
- B18 — 2.8-fold lower, 0.0234 µg/mL
- B19 — within 1.5-fold, 0.092 µg/mL
- B20 — 13-fold lower, 0.00493 µg/mL
- B21 — 2.5-fold higher, 0.161 µg/mL
- B22 — 4-fold lower, 0.0162 µg/mL
- B23 — 3.6-fold lower, 0.0178 µg/mL
- B24 — within 1.5-fold, 0.0491 µg/mL
- B25 — 2.7-fold higher, 0.172 µg/mL
